This note sets out measurements from article PMC6155162, “Identification of mesothelioma-specific sialylated epitope recognized with monoclonal antibody SKM9-2 in a mucin-like membrane protein HEG1” (Scientific Reports, 2018).

The test system of the test is SKM9-2. In words: Deglycosylation analysis: western blotting using SKM9-2 of neuraminidase-treated cell lysates. Format: binding. The conditions noted are these: full-length HEG1, lysates of ACC-MESO4 (native) or HEG1-transfected HEK293T, 6% SDS-PAGE. The text has this:
Figure 8 SKM9-2 epitope produced from mesothelioma cells. (a) Chromatogram of SKMepmin3 separation using anion exchange column. SKMepmin3 produced from HEK293T (blue line) or ACC-MESO4 (pink line) was affinity-purified using SKM9-2-immobilized resins and separated by Mini Q 4.6/50 PE. A major peak of SKMepmin3 purified from HEK293T contained two disialyl T antigens (Fig. 6). (b) Western blotting for epitope-fused GPI-anchor protein (7.6231) treated with neuraminidases. Cell lysate of 7.6231-transfected ACC-MESO1 (top panel), ACC-MESO4 (middle panel), or HEK293T (lower panel) was treated with α2-3 Neuraminidase S or Neuraminidase A, resolved by 4–15% SDS-PAGE, and analyzed by western blotting using SKM9-2. (c) Western blotting for full-length HEG1 treated with neuraminidases. Cell lysates of ACC-MESO4 (upper panel) and HEG1-transfected HEK293T (lower panel) were treated with α2-3 Neuraminidase S or Neuraminidase A and analyzed by 6% SDS-PAGE and western blotting using SKM9-2. (d) Schematic of SKM9-2 epitope. Full-length blots are presented in Supplementary Fig. S10.
Monolayer cells were solubilized with 20 mM Tris buffer (pH 8.0) containing 1% SDS, 1 mM phenylmethylsulfonyl fluoride, 125 mU/mL Benzonase Nuclease (Merck Millipore Co., Tokyo, Japan) (25 µL/cm^2 culture surface area). The lysate (10 µL/lane) was resolved by SDS-PAGE under reducing conditions using 6% polyacrylamide gels or 4–15% precast gels (Bio-Rad Laboratories Inc., Hercules, CA, USA). Then it was transferred to a polyvinylidene difluoride membrane (Immobilon-P; Merck Millipore Co.) by semi-dry blotting in a buffer containing 25 mM Tris, 192 mM glycine, 0.1% SDS, and 20% methanol. The membrane was blocked with 5% non-fat milk in 20 mM Tris-buffered saline (pH 7.2) containing 0.1% Tween 20 and reacted with 1 µg/mL of mAb SKM9-2 or anti-FLAG (Anti-DYKDDDDK tag mAb; 1E6, Wako Pure Chemical Industries, Osaka, Japan). After washing, it was treated with horseradish peroxidase-conjugated goat anti-mouse IgG (Jackson ImmunoResearch, West Grove, PA, USA), and developed with Amersham ECL select (GE Healthcare, Buckinghamshire, UK). Although glycan in non-fat milk often interferes the glycan-dependent binding of an antibody, the SKM9-2 binding was not affected by the blocking using non-fat milk, in comparison with 5% bovine serum albumin (Supplementary Fig. S6).
Cell lysate or SKMepmin3 was treated with α2-3 Neuraminidase S, α2-3, 6, 8, 9 Neuraminidase A, and O-Glycosidase (New England Biolabs Japan, Tokyo, Japan) in 50 mM sodium phosphate (pH 7.5) containing 1% Nonidet P-40, according to the manufacturer’s instructions. The cell lysate sample was resolved by 4–15% or 6% SDS-PAGE under reducing conditions and detected by western blotting using SKM9-2. The analysis of the SKMepmin3 sample was performed by SPR.

B1: Native endogenous HEG1: native HEG1, 400 kDa mucin-like membrane protein, in ACC-MESO4 cells (protein, UniProt Q9ULI3 30-1381, looked up)
Protein HEG homolog 1: TRDPPPSPARRALSLAPLAGAGLELQLERRPEREPPPTPPRERRGPATPGPSYRAPEPGAATQRGPSGRAPRGGSADAAWKHWPESNTEAHVENITFYQNQEDFSTVSSKEGVMVQTSGKSHAASDAPENLTLLAETADARGRSGSSSRTNFTILPVGYSLEIATALTSQSGNLASESLHLPSSSSEFDERIAAFQTKSGTASEMGTERAMGLSEEWTVHSQEATTSAWSPSFLPALEMGELTTPSRKRNSSGPDLSWLHFYRTAASSPLLDLSSSSESTEKLNNSTGLQSSSVSQTKTMHVATVFTDGGPRTLRSLTVSLGPVSKTEGFPKDSRIATTSSSVLLSPSAVESRRNSRVTGNPGDEEFIEPSTENEFGLTSLRWQNDSPTFGEHQLASSSEVQNGSPMSQTETVSRSVAPMRGGEITAHWLLTNSTTSADVTGSSASYPEGVNASVLTQFSDSTVQSGGSHTALGDRSYSESSSTSSSESLNSSAPRGERSIAGISYGQVRGTAIEQRTSSDHTDHTYLSSTFTKGERALLSITDNSSSSDIVESSTSYIKISNSSHSEYSSFFHAQTERSNISSYDGEYAQPSTESPVLHTSNLPSYTPTINMPNTSVVLDTDAEFVSDSSSSSSSSSSSSSSGPPLPLPSVSQSHHLFSSILPSTRASVHLLKSTSDASTPWSSSPSPLPVSLTTSTSAPLSVSQTTLPQSSSTPVLPRARETPVTSFQTSTMTSFMTMLHSSQTADLKSQSTPHQEKVITESKSPSLVSLPTESTKAVTTNSPLPPSLTESSTEQTLPATSTNLAQMSPTFTTTILKTSQPLMTTPGTLSSTASLVTGPIAVQTTAGKQLSLTHPEILVPQISTEGGISTERNRVIVDATTGLIPLTSVPTSAKEMTTKLGVTAEYSPASRSLGTSPSPQTTVVSTAEDLAPKSATFAVQSSTQSPTTVSSSASVNSCAVNPCLHNGECVADNTSRGYHCRCPPSWQGDDCSVDVNECLSNPCPSTAMCNNTQGSFICKCPVGYQLEKGICNLVRTFVTEFKLKRTFLNTTVEKHSDLQEVENEITKTLNMCFSALPSYIRSTVHASRESNAVVISLQTTFSLASNVTLFDLADRMQKCVNSCKSSAEVCQLLGSQRRIFRAGSLCKRKSPECDKDTSICTDLDGVALCQCKSGYFQFNKMDHSCRACEDGYRLENETCMSCPFGLGGLNCGNPYQLITVVIAAAGGGLLLILGIALIVTCCRKNKNDISKLIFKSGDFQMSPYAEYPKNPRSQEWGREAIEMHENGSTKNLLQMTDVYYSPTSVRNPELERNGLYPAYTGLPGSRHSCIFPGQYNPSFISDESRRRDYF
B1: the “SKM9-2 binding (western blot)” value (Neuraminidase A) is “lost” and the “SKM9-2 binding (western blot)” value (α2–3 Neuraminidase S) was “weakened”.

B2: recombinant HEG1: full-length recombinant HEG1 (1-1481) expressed in HEK293T (protein, UniProt Q9ULI3 1-1381, looked up)
chain: MASPRASRWPPPLLLLLLPLLLLPPAAPGTRDPPPSPARRALSLAPLAGAGLELQLERRPEREPPPTPPRERRGPATPGPSYRAPEPGAATQRGPSGRAPRGGSADAAWKHWPESNTEAHVENITFYQNQEDFSTVSSKEGVMVQTSGKSHAASDAPENLTLLAETADARGRSGSSSRTNFTILPVGYSLEIATALTSQSGNLASESLHLPSSSSEFDERIAAFQTKSGTASEMGTERAMGLSEEWTVHSQEATTSAWSPSFLPALEMGELTTPSRKRNSSGPDLSWLHFYRTAASSPLLDLSSSSESTEKLNNSTGLQSSSVSQTKTMHVATVFTDGGPRTLRSLTVSLGPVSKTEGFPKDSRIATTSSSVLLSPSAVESRRNSRVTGNPGDEEFIEPSTENEFGLTSLRWQNDSPTFGEHQLASSSEVQNGSPMSQTETVSRSVAPMRGGEITAHWLLTNSTTSADVTGSSASYPEGVNASVLTQFSDSTVQSGGSHTALGDRSYSESSSTSSSESLNSSAPRGERSIAGISYGQVRGTAIEQRTSSDHTDHTYLSSTFTKGERALLSITDNSSSSDIVESSTSYIKISNSSHSEYSSFFHAQTERSNISSYDGEYAQPSTESPVLHTSNLPSYTPTINMPNTSVVLDTDAEFVSDSSSSSSSSSSSSSSGPPLPLPSVSQSHHLFSSILPSTRASVHLLKSTSDASTPWSSSPSPLPVSLTTSTSAPLSVSQTTLPQSSSTPVLPRARETPVTSFQTSTMTSFMTMLHSSQTADLKSQSTPHQEKVITESKSPSLVSLPTESTKAVTTNSPLPPSLTESSTEQTLPATSTNLAQMSPTFTTTILKTSQPLMTTPGTLSSTASLVTGPIAVQTTAGKQLSLTHPEILVPQISTEGGISTERNRVIVDATTGLIPLTSVPTSAKEMTTKLGVTAEYSPASRSLGTSPSPQTTVVSTAEDLAPKSATFAVQSSTQSPTTVSSSASVNSCAVNPCLHNGECVADNTSRGYHCRCPPSWQGDDCSVDVNECLSNPCPSTAMCNNTQGSFICKCPVGYQLEKGICNLVRTFVTEFKLKRTFLNTTVEKHSDLQEVENEITKTLNMCFSALPSYIRSTVHASRESNAVVISLQTTFSLASNVTLFDLADRMQKCVNSCKSSAEVCQLLGSQRRIFRAGSLCKRKSPECDKDTSICTDLDGVALCQCKSGYFQFNKMDHSCRACEDGYRLENETCMSCPFGLGGLNCGNPYQLITVVIAAAGGGLLLILGIALIVTCCRKNKNDISKLIFKSGDFQMSPYAEYPKNPRSQEWGREAIEMHENGSTKNLLQMTDVYYSPTSVRNPELERNGLYPAYTGLPGSRHSCIFPGQYNPSFISDESRRRDYF
modifications: full-length FLAG tag
notes: full-length recombinant HEG1 (1-1481) expressed in HEK293T
Regarding B2, the “SKM9-2 binding (western blot)” value is, setting by setting: (Neuraminidase A) “lost”; (α2–3 Neuraminidase S) “weakened”.
